The values below come from publication PMC10397247.

In one experiment the target is T1, P12SHb.
T1 chain: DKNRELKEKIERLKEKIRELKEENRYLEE
The experiment in a line: two-hybrid library CCNG1.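 Further: natural log of median RNA to DNA barcode read ratio; higher means stronger binding.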

In a further experiment the target is T2, P1SHb.
T2 chain: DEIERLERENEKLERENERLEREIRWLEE
The experiment in a line: two-hybrid library CCNG1.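 Further: natural log of median RNA to DNA barcode read ratio; higher means stronger binding.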

The next experiment concerns the target T3, P2SHb.
T3 chain: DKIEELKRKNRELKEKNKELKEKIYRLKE
The experiment in a line: two-hybrid library CCNG1.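 Further: natural log of median RNA to DNA barcode read ratio; higher means stronger binding.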

The target of the next experiment is T4, P3SHb.
T4 chain: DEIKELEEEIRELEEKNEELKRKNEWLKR
The experiment in a line: two-hybrid library CCNG1.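 Further: natural log of median RNA to DNA barcode read ratio; higher means stronger binding.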

A further experiment has as its target T5, P4SHb.
T5 chain: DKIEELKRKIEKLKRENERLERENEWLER
The experiment in a line: two-hybrid library CCNG1.

The next experiment addresses T6, P5SHb.
T6 chain: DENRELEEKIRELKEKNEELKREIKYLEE
The experiment in a line: two-hybrid library CCNG1.

The target in another experiment is T7, P6SHb.
T7 chain: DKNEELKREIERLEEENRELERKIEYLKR
The experiment in a line: two-hybrid library CCNG1.

A further experiment has as its target T8, P7SHb.
T8 chain: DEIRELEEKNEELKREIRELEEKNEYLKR
The experiment in a line: two-hybrid library CCNG1.

A further experiment concerns the target T9, P8SHb.
T9 chain: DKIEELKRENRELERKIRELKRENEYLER
The experiment in a line: two-hybrid library CCNG1.

A further experiment has as its target T10, P9SHb.
T10 chain: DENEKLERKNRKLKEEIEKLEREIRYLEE
The experiment in a line: two-hybrid library CCNG1.

Another experiment concerns the target T11, 4H123-AA.
T11 chain: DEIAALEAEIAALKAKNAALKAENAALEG
The experiment in a line: two-hybrid library CCmax.

Another experiment has as its target T12, 4H1310-AA.
T12 chain: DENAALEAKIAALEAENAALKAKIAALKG
The experiment in a line: two-hybrid library CCmax. Conditions: mean of both orientations.

The next experiment concerns the target T13, 4H1351-AA.
T13 chain: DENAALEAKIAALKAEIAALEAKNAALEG
The experiment in a line: two-hybrid library CCmax. Conditions: mean of both orientations.

In another experiment the target is T14, 4H1388-AA.
T14 chain: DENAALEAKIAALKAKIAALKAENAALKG
The experiment in a line: two-hybrid library CCmax. To be noted: mean of both orientations.

The target of another experiment is T15, 4H1401-AA.
T15 chain: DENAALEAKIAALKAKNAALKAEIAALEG
The experiment in a line: two-hybrid library CCmax. Conditions: mean of both orientations.

The next experiment addresses T16, 4H1513-AA.
T16 chain: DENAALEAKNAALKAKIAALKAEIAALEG
The experiment in a line: two-hybrid library CCmax. Conditions: mean of both orientations.

In a further experiment the target is T17, 4H1594-AA.
T17 chain: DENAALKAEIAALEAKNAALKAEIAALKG
The experiment in a line: two-hybrid library CCmax. Conditions: mean of both orientations.

Another experiment has as its target T18, 4H1629-AA.
T18 chain: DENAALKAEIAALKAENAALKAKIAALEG
The experiment in a line: two-hybrid library CCmax. Conditions: mean of both orientations.

A further experiment concerns the target T19, 4H1845-AA.
T19 chain: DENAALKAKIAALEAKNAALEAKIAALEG
The experiment in a line: two-hybrid library CCmax. To be noted: mean of both orientations.

For a further experiment, the target named is T20, 4H1874-AA.
T20 chain: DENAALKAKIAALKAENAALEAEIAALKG
The experiment in a line: two-hybrid library CCmax. Conditions: mean of both orientations.

A further experiment deals with T21, 4H2198-AA.
T21 chain: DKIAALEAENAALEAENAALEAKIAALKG
The experiment in a line: two-hybrid library CCmax. To be noted: mean of both orientations.

The target of another experiment is T22, 4H2553-AA.
T22 chain: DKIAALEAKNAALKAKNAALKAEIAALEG
The experiment in a line: two-hybrid library CCmax. To be noted: mean of both orientations.

In another experiment the target is T23, 4H2611-AA.
T23 chain: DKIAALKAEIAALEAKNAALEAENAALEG
The experiment in a line: two-hybrid library CCmax. Conditions: mean of both orientations.

For a further experiment, the target named is T24, 4H2620-AA.
T24 chain: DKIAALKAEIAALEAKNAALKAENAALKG
The experiment in a line: two-hybrid library CCmax. Conditions: mean of both orientations.

A further experiment concerns the target T25, 4H2648-AA.
T25 chain: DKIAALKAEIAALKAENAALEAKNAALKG
The experiment in a line: two-hybrid library CCmax. Conditions: mean of both orientations.

A further experiment has as its target T26, 4H2907-AA.
T26 chain: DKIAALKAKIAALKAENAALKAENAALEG
The experiment in a line: two-hybrid library CCmax. Conditions: mean of both orientations.

Another experiment concerns the target T27, 4H3056-AA.
T27 chain: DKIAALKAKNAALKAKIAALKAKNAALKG
The experiment in a line: two-hybrid library CCmax. Conditions: mean of both orientations.

In the next experiment the target is T28, 4H3133-AA.
T28 chain: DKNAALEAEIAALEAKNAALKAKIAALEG
The experiment in a line: two-hybrid library CCmax. To be noted: mean of both orientations.

The target in a further experiment is T29, 4H3162-AA.
T29 chain: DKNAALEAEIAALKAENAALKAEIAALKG
The experiment in a line: two-hybrid library CCmax. Conditions: mean of both orientations.

The target of a further experiment is T30, 4H32-AA.
T30 chain: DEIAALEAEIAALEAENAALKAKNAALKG
The experiment in a line: two-hybrid library CCmax. Conditions: mean of both orientations.

The target in another experiment is T31, 4H3378-AA.
T31 chain: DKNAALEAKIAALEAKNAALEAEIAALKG
The experiment in a line: two-hybrid library CCmax.

In another experiment the target is T32, 4H340-AA.
T32 chain: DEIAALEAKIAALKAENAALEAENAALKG
The experiment in a line: two-hybrid library CCmax. Conditions: mean of both orientations.

The target in another experiment is T33, 4H3413-AA.
T33 chain: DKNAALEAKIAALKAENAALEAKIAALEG
The experiment in a line: two-hybrid library CCmax. Conditions: mean of both orientations.

A further experiment deals with T34, 4H3588-AA.
T34 chain: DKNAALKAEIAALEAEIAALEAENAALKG
The experiment in a line: two-hybrid library CCmax. Conditions: mean of both orientations.

Another experiment deals with T35, 4H3606-AA.
T35 chain: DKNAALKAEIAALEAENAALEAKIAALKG
The experiment in a line: two-hybrid library CCmax. Conditions: mean of both orientations.

The target of another experiment is T36, 4H3631-AA.
T36 chain: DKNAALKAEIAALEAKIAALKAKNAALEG
The experiment in a line: two-hybrid library CCmax. Conditions: mean of both orientations.

The next experiment has as its target T37, 4H3697-AA.
T37 chain: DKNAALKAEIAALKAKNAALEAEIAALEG
The experiment in a line: two-hybrid library CCmax. To be noted: mean of both orientations.

A further experiment has as its target T38, 4H3718-AA.
T38 chain: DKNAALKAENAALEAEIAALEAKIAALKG
The experiment in a line: two-hybrid library CCmax. To be noted: mean of both orientations.

In a further experiment the target is T39, 4H384-AA.
T39 chain: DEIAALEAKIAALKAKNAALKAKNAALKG
The experiment in a line: two-hybrid library CCmax. To be noted: mean of both orientations.

Another experiment addresses T40, 4H3865-AA.
T40 chain: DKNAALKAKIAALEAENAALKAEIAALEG
The experiment in a line: two-hybrid library CCmax. Conditions: mean of both orientations.

In another experiment the target is T41, 4H697-AA.
T41 chain: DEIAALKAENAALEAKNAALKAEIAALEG
The experiment in a line: two-hybrid library CCmax. Conditions: mean of both orientations.

For a further experiment, the target named is T42, 4H982-AA.
T42 chain: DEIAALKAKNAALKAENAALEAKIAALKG
The experiment in a line: two-hybrid library CCmax. To be noted: mean of both orientations.

With DKNRELKEKIERLKEKIRELKEENRYLEE [P12SHb], the interaction score was -0.206 with P12SHb; -1.47 in the experiment with P1SHb; -1.12 in the experiment with P2SHb; 0.41 in the experiment with P3SHb; -0.198 with P4SHb; 0.0253 in the experiment with P5SHb. Also, the interaction score in the experiment with P6SHb was 0.412; in the experiment with P7SHb, -0.593; in the experiment with P8SHb, -0.747; with P9SHb, 1.48.

For the molecule DEIAALEAEIAALKAKNAALKAENAALEG [4H123-AA], the interaction score was -1.3 with 4H123-AA; -2 with 4H1310-AA; -0.328 with 4H1351-AA; -0.318 with 4H1388-AA; -1.83 with 4H1401-AA; -1.7 with 4H1513-AA. The interaction score was -1.9 with 4H1594-AA; -1.79 with 4H1629-AA; -1.73 with 4H1845-AA; -0.134 with 4H1874-AA; -0.461 in the experiment with 4H2198-AA; -1.8 with 4H2553-AA. The interaction score with 4H2611-AA is 0.00349; in the experiment with 4H2620-AA, 0.675; with 4H2648-AA, 2.1; with 4H2907-AA, 0.0402; with 4H3056-AA it was -2.08; in the experiment with 4H3133-AA, -2.05. In addition, the interaction score with 4H3162-AA is -1.32; with 4H32-AA, 1.79; with 4H3378-AA, -1.89; in the experiment with 4H340-AA, 1.64; with 4H3413-AA, -1.35; with 4H3588-AA, -0.454. Besides, the interaction score was 1.04 with 4H3606-AA; -0.979 with 4H3631-AA; -1.64 with 4H3697-AA; -0.602 with 4H3718-AA; -0.635 with 4H384-AA; -1.93 in the experiment with 4H3865-AA. Besides, the results for the interaction score in the experiment with 4H697-AA and with 4H982-AA were -0.781 and -1.15, respectively.
